Results reported in US8017725B2, “Use of heparin-binding domain of fibronectin for diagnosis and treatment of cancer” (Novartis Forschungesstiftung Zweigniederlassung Friedrich …, priority 2001, dated 2011).
Entries after “also recorded” stand apart in the source; their conditions may differ. Values belong to the molecule of their own block, whether it stands above or below them.

Experiments:
[1] = system: T98G cells, MDA-MB435 cells and rat embryo fibroblasts REF52; assay: Attachment assay: cell spreading on fibronectin/tenascin-C with added fibronectin fragment; assay type: cell-based
Method: 60-well microtiter plates (Nunc) were coated with 10 μg/ml ECM molecules giving rise to 1 μg/cm^2 (fibronectin and tenascin-C) and 4 μg/cm^2 (FNIII13) for 1 h at 37° C. ECM proteins were coated separately, starting with fibronectin, followed by tenascin-C, FNIII13 and BSA. The non-coated plastic surface was blocked with 1% heat-inactivated BSA in PBS giving rise to 10 μg/cm^2 protein. Similarly, mixed substrata of collagen I and laminin 1, respectively with tenascin-C were prepared and tenascin-C was detected by ELISA.
Efficient fibronectin and tenascin-C coating was determined by ELISA with an anti-fibronectin and anti-tenascin-C antibody (Fischer, D. et al (1995) J Biol Chem 270: 3378-3384), respectively and by PAGE analysis of lysed surface-bound ECM material combined with Coomassie Brilliant Blue staining. Before plating, cells were serum starved for 18 h in DMEM containing 1×ITS (insulin, transferrin, selene) supplement, trypsinised, trypsin was blocked with 100 μg/ml soybean trypsin inhibitor in PBS and, cells were resuspended in serum-free medium and counted. 200-500 cells per well were plated for the indicated time points, fixed by addition of glutaraldehyde (2% final concentration) for 15 minutes and stained with 0.1% crystalviolet in 20% methanol for 30 minutes. Cells were observed under a Nikon microscope (Nikon diaphot) and pictures were taken with a Nikon camera.
(§1) Cells were plated on substrata (FN, FN/TN, FN/TN/III13, FN/TN+III13, III13, or BSA) for 1 h and 2 h, fixed and stained with crystal violet or vinculin and TRITC—labelled phalloidin. Adherent cells were photographed and spread cells were counted. Six-fold molar excess of FNIII13 (4 μg/cm^2) was either bound to a mixed fibronectin/tenascin-C substratum prior to addition of the cells (FN/TN/III13) or, was added in solution together with the cells (FN/TN+FNIII13). Proliferation of MDA-MB435 cells and DNA replication of T98G glioblastoma cells were determined as described in Examples 4 and 5. […] T98G cells plated for 2 h on fibronectin or on the mixed substratum were stained for vinculin. […] In addition, polymerisation of actin into stress fibres was blocked by tenascin-C. No polymerised actin was found.

T98G and REF52 cells = assay: Immunofluorescence of actin stress fibres and focal contacts; assay type: cell-based
Method: 10^4 cells were transferred onto 4-well Cellstar plastic plates (Greiner) that were coated with ECM proteins as described. Cells were fixed with 4% paraformaldehyde, 50 mM phosphate buffer, 5 mM EDTA in PBS for 15 minutes, blocked with 3% BSA, 0.5% Tween-20 in PBS and incubated with primary and secondary antibodies in blocking solution. Slides were embedded in 10.5% Mowiol containing 2.5% DABCO as antifade agent. Expression of syndecans was determined by immunofluorescence.
as §1

tenascin-C [2] = assay: In vitro binding assay (ELISA) to tenascin-C; parameters: species or system chicken; details: substratum-immobilised tenascin-C
Method: (§2) 96-well ELISA plates were coated with the indicated ECM proteins for 1 h at 37° C., blocked with 1% milkpowder, 0.05% Tween-20 in PBS. ECM proteins were added at the indicated concentrations in blocking solution for 1 h, washed with blocking solution and anti-fibronectin or anti-tenascin-C antibodies were added. Bound proteins were detected by immune reaction with a peroxidase-coupled secondary antibody specifically recognising anti-fibronectin and anti-tenascin-C antibodies, respectively, followed by colour reaction with 21 mg/ml citric acid 1-hydrate, 34 mg/ml Na2HPO4.2H2O, 0.4 mg/ml phenylenediamine, 1 μl H2O2 that was stopped with 4M sulphuric acid. The absorbance was read at […].
Bound fragments were detected with a polyclonal anti-fibronectin antibody, bound tenascin-C was detected with a monoclonal anti-tenascin-C antibody.

syndecan-4 = assay: Syndecan-4 immunoprecipitation and immunoblotting for FNIII13; assay type: binding
Method: (§3) To investigate FNIII13 as a potential ligand of syndecan-4, the interaction of syndecan-4 with FNIII13 was tested. Upon addition of FNIII13 to T98G:S4* cells, FNIII13 was detected in a syndecan-4 immunoprecipitation followed by western blotting with a GST specific antibody. This interaction was blocked upon addition of heparin. Parental and syndecan-4 overexpressing T98G:S4* cells were incubated with (100 μg/ml) FNIII13 for 1 h in the presence or absence of 0.5 mg/ml heparin. Syndecan-4-bound FNIII13 was detected by immunoprecipitation of syndecan-4 and immunoblotting for FNIII13. Recombinant FNIII13 was added to the cells in the absence or presence of (0.5 mg/ml) heparin. […] To further test whether FNIII13 binds to syndecan-4, FNIII13 was added to T98G cells and cell surface-bound FNIII13 was detected by pull down of the GST-tagged FNIII13 with glutathione Sepharose followed by western blotting with an anti-His antibody or by immunofluorescence with an anti-GST antibody. […] This interaction could be blocked by heparin showing that syndecan-4 bound FNIII13 in a glycosaminoglycan-dependent manner. In addition, cell surface-bound FNIII13 was detected by immunofluorescence with an anti-His and anti-GST antibody. […] Syndecan-2 expression was determined by incubation with chicken anti-syndecan-2, followed by rabbit anti-chicken and FITC coupled goat anti-rabbit immunostaining.

[3] = system: binding of tenascin-C to surface-immobilised intact fibronectin; assay: Competition of tenascin-C binding to surface-immobilised intact fibronectin
Method: as §2
No binding of the recombinant fragment FNIII7-10, including the RGD and synergy sites, to tenascin-C was detected in an ELISA assay.

tenascin-C [4] = assay: Co-immunoprecipitation with tenascin-C; assay type: binding, chicken
[5] = system: FAK (focal adhesion kinase) autophosphorylation at Y397; assay: FAK autophosphorylation by immunoblotting; assay type: cell-based, human; details: T98G parental and T98G:S4* cells
Method: An experiment was performed to check for the possibility that tenascin-C might compete with syndecan-4 for binding to the HepII site in fibronectin. The experiment tested whether activation of syndecan-4 through overexpression could rescue the tenascin-C-induced spreading defect on fibronectin. Parent T98G cells, pools (T98G:S4) or a selected clone (T98G:S4*) of glioblastoma cells stably overexpressing syndecan-4 (T98G:S4) were plated on the indicated substrata for 30 minutes, 2 h, 18 h or fixed, stained with crystal violet, photographed, and counted or stained with TRITC-labelled phalloidin and vinculin. Syndecan-4 was detected by immunofluorescence with an anti-syndecan-4 antibody. There was no staining with an unspecific anti-His monoclonal antibody (control), nor with the secondary antibody alone. FAK (focal adhesion kinase) autophosphorylation at Y397 and total FAK expression levels were assessed by immunoblotting with specific antibodies. DNA replication was determined as described in Example 4 and 5. As a result, pools of T98G cells (T98G:S4) that overexpressed syndecan-4 thereby activating syndecan-4 attached and spread on the mixed fibronectin/tenascin-C substratum. The majority of the 64.7% of T98G:S4 cells that attached also spread on the fibronectin/tenascin-C substratum. […]

T98G:S4* cells = assay: Cell surface binding of FNIII13 (pull down, western blotting, immunofluorescence); assay type: cell-based, human; details: compared to parental T98G
Method: as §3

[6] = fragment bound (immobilised) to the mixed substratum

Molecule: SEQ ID NO:4: 20 amino acid fragment of FNIII13 having the sequence of SEQ ID NO:4, made by solid phase synthesis (RRARVTDATETTITISWRTK; listed as Homo sapiens)
restoration of cell spreading on fibronectin/tenascin-C substratum [1, 6]: restored cell spreading
restoration of actin stress fibres and focal contacts on fibronectin/tenascin-C substratum (T98G and REF52 cells): largely restored

Molecule: fibronectin: Fibronectin prepared from horse serum by gelatin agarose chromatography
binding to tenascin-C in ELISA (tenascin-C [2]): binds to substratum-immobilised tenascin-C in a dose-dependent manner

Molecule: heparin [reference compound]
effect on the FNIII13/syndecan-4 interaction (syndecan-4; 0.5 mg/ml heparin): blocked

FAK autophosphorylation at Y397 [5]: largely restored FAK autophosphorylation
B1: FNIII13: recombinant 13th fibronectin type III repeat of the HepII site (SEQ ID NO:1) (protein, listed as Homo sapiens)
chain: NVSPPRRARVTDATETTITISWRTKTETITGFQVDAVPANGQTPIQRTIKPDVRSYTITGLQPGTDYKIYLYTLNDNARSSPVVIDAST
competition of tenascin-C binding to immobilised intact fibronectin [3]: competed for by FNIII13 in a concentration-dependent fashion
complex formation with tenascin-C in co-immunoprecipitation (tenascin-C [4]): form complexes
FNIII13 bound to syndecan-4 in immunoprecipitation (syndecan-4; T98G:S4* cells, 100 μg/ml FNIII13, 1 h): detected
attachment and spreading on the fragment alone as substratum ([1]; FNIII13 substratum without fibronectin): poorly attached and remained rounded
restoration of cell spreading on fibronectin/tenascin-C substratum ([1]; fragment added in solution together with the cells): restored
restoration of cell spreading on fibronectin/tenascin-C substratum [1, 6]: could restore the cell spreading defect
binding to the cell surface of syndecan-4 overexpressing T98G cells (T98G:S4* cells): dose-dependent and heparin-competable manner; also recorded: several fold increased levels
restoration of actin stress fibres and focal contacts on fibronectin/tenascin-C substratum (T98G and REF52 cells): largely restored
binding to tenascin-C in ELISA (tenascin-C [2]): bound to tenascin-C in a dose-dependent manner reaching saturation
